One test concerns the target T1, GST-RB (379-928) (UniProt P06400 379-928).
T1 construct: Expressed in E. coli; also called large pocket domain of RB as GST fusion; not shown: glutathione S-transferase (GST) fusion partner of vector pGEX6P-1
T1 sequence (looked up): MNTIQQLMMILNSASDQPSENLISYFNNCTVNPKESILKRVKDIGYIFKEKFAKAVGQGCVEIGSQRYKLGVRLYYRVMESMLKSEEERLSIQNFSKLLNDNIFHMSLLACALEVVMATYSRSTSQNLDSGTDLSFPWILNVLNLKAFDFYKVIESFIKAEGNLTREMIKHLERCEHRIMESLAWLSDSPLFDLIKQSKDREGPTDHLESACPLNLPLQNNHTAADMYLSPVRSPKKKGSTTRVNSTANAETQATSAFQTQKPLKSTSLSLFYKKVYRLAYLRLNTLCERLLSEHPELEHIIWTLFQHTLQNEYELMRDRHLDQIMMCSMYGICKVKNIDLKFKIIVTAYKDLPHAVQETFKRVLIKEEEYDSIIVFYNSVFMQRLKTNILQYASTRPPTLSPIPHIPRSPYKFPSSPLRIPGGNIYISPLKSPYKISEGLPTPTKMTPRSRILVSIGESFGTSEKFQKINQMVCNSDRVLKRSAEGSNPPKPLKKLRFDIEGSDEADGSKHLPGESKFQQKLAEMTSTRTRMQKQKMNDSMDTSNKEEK
Put plainly: GST-RB (379-928) pull-down of His-tagged fragment from E. coli, Coomassie stain and anti-His immunoblot.

For test [1], the target named is T2, MTAF600 (microtubule associated factor 600) (human, UniProt Q5T4S7 1-5183).
T2 construct: Native endogenous protein of HeLa nuclear extracts (5183 residues); also called MT-associated factor (MTAF) 600; 600 kDa subunit
Kind of test: immunoprecipitation with RB antibody from HeLa extract, anti-MTAF600 immunoblot. (In general: In western blotting, separated proteins are transferred to a membrane and probed.)

The target of test [2] is T2, MTAF600 (microtubule associated factor …). Kind of test: anti-FLAG immunoprecipitation of C-terminally tagged RB from HeLa cells.
Test [3] has the same target. Put plainly: immunoprecipitation with p130 antibody from HeLa extract, anti-MTAF600 immunoblot.
Test [4] shares this target. Kind of test: immunoprecipitation with p107 antibody from HeLa extract, anti-MTAF600 immunoblot.

T2 sequence (Q5T4S7 other isoform, or with tags, fused parts or gaps limits assumed): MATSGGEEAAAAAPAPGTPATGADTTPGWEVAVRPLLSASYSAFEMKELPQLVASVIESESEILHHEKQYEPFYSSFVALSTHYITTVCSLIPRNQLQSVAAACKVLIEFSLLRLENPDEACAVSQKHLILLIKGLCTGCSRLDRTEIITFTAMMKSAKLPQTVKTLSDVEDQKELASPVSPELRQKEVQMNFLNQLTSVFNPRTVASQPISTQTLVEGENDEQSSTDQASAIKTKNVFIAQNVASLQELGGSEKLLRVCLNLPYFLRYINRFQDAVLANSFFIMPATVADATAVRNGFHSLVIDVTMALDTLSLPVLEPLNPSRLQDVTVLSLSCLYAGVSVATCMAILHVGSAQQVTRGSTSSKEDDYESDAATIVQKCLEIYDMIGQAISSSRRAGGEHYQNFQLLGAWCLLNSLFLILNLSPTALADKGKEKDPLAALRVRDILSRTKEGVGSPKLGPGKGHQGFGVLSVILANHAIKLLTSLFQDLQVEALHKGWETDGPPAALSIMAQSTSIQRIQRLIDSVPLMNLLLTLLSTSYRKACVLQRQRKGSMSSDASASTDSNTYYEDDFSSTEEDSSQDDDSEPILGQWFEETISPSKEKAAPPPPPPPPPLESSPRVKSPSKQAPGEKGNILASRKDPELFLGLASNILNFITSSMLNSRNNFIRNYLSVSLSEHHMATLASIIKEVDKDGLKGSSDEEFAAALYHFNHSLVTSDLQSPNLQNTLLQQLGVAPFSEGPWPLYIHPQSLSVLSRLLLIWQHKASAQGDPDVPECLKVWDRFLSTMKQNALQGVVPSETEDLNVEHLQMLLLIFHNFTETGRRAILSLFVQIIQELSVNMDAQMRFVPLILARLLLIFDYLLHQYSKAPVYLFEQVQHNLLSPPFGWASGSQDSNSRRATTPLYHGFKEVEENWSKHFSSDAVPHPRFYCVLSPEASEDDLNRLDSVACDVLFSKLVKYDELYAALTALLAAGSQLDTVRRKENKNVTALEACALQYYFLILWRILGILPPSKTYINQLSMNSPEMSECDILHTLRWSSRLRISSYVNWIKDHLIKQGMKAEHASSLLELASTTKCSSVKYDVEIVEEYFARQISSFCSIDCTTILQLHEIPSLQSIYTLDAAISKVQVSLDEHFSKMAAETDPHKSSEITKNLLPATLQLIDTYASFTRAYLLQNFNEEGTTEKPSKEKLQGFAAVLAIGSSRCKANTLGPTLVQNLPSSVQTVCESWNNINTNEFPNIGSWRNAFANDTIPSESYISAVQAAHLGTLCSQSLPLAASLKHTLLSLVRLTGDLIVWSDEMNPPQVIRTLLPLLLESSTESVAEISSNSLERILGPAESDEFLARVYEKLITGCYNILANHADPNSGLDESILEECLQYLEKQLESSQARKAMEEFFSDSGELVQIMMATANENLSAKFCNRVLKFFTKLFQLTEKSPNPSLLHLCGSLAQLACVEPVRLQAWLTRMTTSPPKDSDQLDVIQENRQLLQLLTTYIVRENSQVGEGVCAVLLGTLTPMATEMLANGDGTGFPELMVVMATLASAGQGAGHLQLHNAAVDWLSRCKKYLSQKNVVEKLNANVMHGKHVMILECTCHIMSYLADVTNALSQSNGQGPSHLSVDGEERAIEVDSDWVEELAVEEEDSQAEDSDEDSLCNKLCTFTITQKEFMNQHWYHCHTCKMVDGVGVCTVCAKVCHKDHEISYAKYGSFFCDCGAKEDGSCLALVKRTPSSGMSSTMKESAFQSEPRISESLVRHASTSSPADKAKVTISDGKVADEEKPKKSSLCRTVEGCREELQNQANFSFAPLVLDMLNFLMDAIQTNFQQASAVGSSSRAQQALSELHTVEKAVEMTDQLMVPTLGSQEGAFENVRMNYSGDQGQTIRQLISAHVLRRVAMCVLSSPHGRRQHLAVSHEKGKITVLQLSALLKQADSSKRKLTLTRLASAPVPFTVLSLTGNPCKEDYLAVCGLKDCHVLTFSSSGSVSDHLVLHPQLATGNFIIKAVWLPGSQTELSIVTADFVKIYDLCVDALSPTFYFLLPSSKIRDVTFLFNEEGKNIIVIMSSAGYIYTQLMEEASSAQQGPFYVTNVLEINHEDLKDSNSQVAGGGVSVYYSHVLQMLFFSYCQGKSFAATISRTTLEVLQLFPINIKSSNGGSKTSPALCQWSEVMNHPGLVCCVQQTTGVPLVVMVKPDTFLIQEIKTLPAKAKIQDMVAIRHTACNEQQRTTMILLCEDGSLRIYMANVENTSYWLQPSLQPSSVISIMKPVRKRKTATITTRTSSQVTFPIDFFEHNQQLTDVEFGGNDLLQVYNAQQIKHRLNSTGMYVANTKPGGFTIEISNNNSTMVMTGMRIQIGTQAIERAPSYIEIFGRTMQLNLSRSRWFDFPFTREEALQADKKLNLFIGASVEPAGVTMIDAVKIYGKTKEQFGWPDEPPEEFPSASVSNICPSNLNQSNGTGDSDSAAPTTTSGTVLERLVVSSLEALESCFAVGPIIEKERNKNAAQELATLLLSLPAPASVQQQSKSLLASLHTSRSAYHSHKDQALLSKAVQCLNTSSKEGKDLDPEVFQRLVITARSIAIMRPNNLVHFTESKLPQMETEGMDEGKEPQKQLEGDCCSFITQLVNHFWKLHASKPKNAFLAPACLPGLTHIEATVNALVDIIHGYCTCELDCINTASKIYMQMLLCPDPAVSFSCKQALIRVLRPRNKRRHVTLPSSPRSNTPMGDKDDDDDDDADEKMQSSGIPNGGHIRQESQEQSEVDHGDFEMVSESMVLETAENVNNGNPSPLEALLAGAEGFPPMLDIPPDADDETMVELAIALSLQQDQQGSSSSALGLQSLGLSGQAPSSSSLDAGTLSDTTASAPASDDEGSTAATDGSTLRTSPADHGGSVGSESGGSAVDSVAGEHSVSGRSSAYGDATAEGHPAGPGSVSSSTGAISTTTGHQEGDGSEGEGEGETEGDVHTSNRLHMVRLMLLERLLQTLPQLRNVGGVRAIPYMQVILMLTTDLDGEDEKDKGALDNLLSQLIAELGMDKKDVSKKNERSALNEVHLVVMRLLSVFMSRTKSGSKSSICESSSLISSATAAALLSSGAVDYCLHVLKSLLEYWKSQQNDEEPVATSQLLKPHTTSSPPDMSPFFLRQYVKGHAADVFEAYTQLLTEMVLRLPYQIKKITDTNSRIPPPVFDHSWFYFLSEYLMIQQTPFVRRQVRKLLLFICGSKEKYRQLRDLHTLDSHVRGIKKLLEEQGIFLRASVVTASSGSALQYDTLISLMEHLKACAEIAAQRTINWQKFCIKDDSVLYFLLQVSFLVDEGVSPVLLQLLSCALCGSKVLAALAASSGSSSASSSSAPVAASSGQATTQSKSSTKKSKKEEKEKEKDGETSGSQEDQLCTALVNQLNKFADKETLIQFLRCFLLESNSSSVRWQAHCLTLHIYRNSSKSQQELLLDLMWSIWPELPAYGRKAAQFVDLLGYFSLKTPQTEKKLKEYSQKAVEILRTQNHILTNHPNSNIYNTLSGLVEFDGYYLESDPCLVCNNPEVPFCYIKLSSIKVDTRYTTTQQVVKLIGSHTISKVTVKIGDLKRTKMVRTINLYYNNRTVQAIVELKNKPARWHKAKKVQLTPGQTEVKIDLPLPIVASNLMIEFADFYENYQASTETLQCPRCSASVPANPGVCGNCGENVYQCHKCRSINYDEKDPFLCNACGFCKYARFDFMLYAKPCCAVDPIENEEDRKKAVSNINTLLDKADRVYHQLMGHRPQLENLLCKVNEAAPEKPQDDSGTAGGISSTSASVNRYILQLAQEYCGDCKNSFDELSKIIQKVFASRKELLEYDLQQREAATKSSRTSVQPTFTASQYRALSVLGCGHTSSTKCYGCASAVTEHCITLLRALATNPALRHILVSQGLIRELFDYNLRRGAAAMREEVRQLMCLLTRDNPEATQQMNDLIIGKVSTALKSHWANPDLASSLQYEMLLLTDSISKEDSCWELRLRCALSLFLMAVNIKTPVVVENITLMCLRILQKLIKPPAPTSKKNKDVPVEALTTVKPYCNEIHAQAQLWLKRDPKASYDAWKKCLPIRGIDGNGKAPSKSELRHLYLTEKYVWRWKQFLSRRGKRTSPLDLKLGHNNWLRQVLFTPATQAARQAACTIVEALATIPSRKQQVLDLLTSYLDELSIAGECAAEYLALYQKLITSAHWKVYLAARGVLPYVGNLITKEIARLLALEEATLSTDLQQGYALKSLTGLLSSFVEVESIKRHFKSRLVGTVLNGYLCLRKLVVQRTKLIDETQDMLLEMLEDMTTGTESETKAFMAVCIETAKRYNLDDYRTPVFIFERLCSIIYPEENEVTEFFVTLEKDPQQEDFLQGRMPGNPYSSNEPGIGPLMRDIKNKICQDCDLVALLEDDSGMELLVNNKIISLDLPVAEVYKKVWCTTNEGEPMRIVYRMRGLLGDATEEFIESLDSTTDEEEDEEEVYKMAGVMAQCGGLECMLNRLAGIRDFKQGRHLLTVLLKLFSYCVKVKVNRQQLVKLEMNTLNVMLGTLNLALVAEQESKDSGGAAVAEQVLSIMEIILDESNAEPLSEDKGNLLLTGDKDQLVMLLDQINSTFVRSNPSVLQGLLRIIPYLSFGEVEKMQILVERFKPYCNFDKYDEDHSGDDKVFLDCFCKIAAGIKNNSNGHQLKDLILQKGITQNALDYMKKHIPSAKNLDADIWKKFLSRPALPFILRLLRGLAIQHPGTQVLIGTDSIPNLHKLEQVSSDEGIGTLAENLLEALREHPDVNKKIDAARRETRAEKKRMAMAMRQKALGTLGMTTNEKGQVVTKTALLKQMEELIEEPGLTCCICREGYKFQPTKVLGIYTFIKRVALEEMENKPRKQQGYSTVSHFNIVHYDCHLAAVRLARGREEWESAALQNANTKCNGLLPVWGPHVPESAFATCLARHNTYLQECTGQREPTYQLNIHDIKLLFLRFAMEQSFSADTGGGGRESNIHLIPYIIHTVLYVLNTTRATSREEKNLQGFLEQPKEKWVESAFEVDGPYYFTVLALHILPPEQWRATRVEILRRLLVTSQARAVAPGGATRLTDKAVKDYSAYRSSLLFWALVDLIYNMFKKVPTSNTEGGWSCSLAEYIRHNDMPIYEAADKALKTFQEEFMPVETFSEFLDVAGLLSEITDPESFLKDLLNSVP

B1: His-tagged MTAF600 (4529-4851) (other)
chain: EMNTLNVMLGTLNLALVAEQESKDSGGAAVAEQVLSIMEIILDESNAEPLSEDKGNLLLTGDKDQLVMLLDQINSTFVRSNPSVLQGLLRIIPYLSFGEVEKMQILVERFKPYCNFDKYDEDHSGDDKVFLDCFCKIAAGIKNNSNGHQLKDLILQKGITQNALDYMKKHIPSAKNLDADIWKKFLSRPALPFILRLLRGLAIQHPGTQVLIGTDSIPNLHKLEQVSSDEGIGTLAENLLEALREHPDVNKKIDAARRETRAEKKRMAMAMRQKALGTLGMTTNEKGQVVTKTALLKQMEELIEEPGLTCCICREGYKFQPTK
notes: Expressed in E. coli; not shown: His tag of vector pET28c
For B1, in the test with GST-RB (379-928), the binding result is reported as “no binding”.

B2: RB (retinoblastoma protein), endogenous, HeLa extract (other, human, UniProt P06400 2-928, looked up)
chain: PPKTPRKTAATAAAAAAEPPAPPPPPPPEEDPEQDSGPEDLPLVRLEFEETEEPDFTALCQKLKIPDHVRERAWLTWEKVSSVDGVLGGYIQKKKELWGICIFIAAVDLDEMSFTFTELQKNIEISVHKFFNLLKEIDTSTKVDNAMSRLLKKYDVLFALFSKLERTCELIYLTQPSSSISTEINSALVLKVSWITFLLAKGEVLQMEDDLVISFQLMLCVLDYFIKLSPPMLLKEPYKTAVIPINGSPRTPRRGQNRSARIAKQLENDTRIIEVLCKEHECNIDEVKNVYFKNFIPFMNSLGLVTSNGLPEVENLSKRYEEIYLKNKDLDARLFLDHDKTLQTDSIDSFETQRTPRKSNLDEEVNVIPPHTPVRTVMNTIQQLMMILNSASDQPSENLISYFNNCTVNPKESILKRVKDIGYIFKEKFAKAVGQGCVEIGSQRYKLGVRLYYRVMESMLKSEEERLSIQNFSKLLNDNIFHMSLLACALEVVMATYSRSTSQNLDSGTDLSFPWILNVLNLKAFDFYKVIESFIKAEGNLTREMIKHLERCEHRIMESLAWLSDSPLFDLIKQSKDREGPTDHLESACPLNLPLQNNHTAADMYLSPVRSPKKKGSTTRVNSTANAETQATSAFQTQKPLKSTSLSLFYKKVYRLAYLRLNTLCERLLSEHPELEHIIWTLFQHTLQNEYELMRDRHLDQIMMCSMYGICKVKNIDLKFKIIVTAYKDLPHAVQETFKRVLIKEEEYDSIIVFYNSVFMQRLKTNILQYASTRPPTLSPIPHIPRSPYKFPSSPLRIPGGNIYISPLKSPYKISEGLPTPTKMTPRSRILVSIGESFGTSEKFQKINQMVCNSDRVLKRSAEGSNPPKPLKKLRFDIEGSDEADGSKHLPGESKFQQKLAEMTSTRTRMQKQKMNDSMDTSNKEEK
notes: Endogenous RB, both phosphorylation forms together
As for B2, the binding result in test [1] is “binds”.

B3: RB with the FLAG tag at the C-terminus (other, UniProt P06400 2-928, looked up, not shown: small tags and cut ends)
chain: B2 chain
notes: also called C-terminally tagged RB
For the molecule B3, in test [2], the binding result is “binds”.

B4: p130, endogenous, HeLa extract (other, UniProt Q08999 1-1139, looked up)
chain: MPSGGDQSPPPPPPPPAAAASDEEEEDDGEAEDAAPPAESPTPQIQQRFDELCSRLNMDEAARAEAWDSYRSMSESYTLEGNDLHWLACALYVACRKSVPTVSKGTVEGNYVSLTRILKCSEQSLIEFFNKMKKWEDMANLPPHFRERTERLERNFTVSAVIFKKYEPIFQDIFKYPQEEQPRQQRGRKQRRQPCTVSEIFHFCWVLFIYAKGNFPMISDDLVNSYHLLLCALDLVYGNALQCSNRKELVNPNFKGLSEDFHAKDSKPSSDPPCIIEKLCSLHDGLVLEAKGIKEHFWKPYIRKLYEKKLLKGKEENLTGFLEPGNFGESFKAINKAYEEYVLSVGNLDERIFLGEDAEEEIGTLSRCLNAGSGTETAERVQMKNILQQHFDKSKALRISTPLTGVRYIKENSPCVTPVSTATHSLSRLHTMLTGLRNAPSEKLEQILRTCSRDPTQAIANRLKEMFEIYSQHFQPDEDFSNCAKEIASKHFRFAEMLYYKVLESVIEQEQKRLGDMDLSGILEQDAFHRSLLACCLEVVTFSYKPPGNFPFITEIFDVPLYHFYKVIEVFIRAEDGLCREVVKHLNQIEEQILDHLAWKPESPLWEKIRDNENRVPTCEEVMPPQNLERADEICIAGSPLTPRRVTEVRADTGGLGRSITSPTTLYDRYSSPPASTTRRRLFVENDSPSDGGTPGRMPPQPLVNAVPVQNVSGETVSVTPVPGQTLVTMATATVTANNGQTVTIPVQGIANENGGITFFPVQVNVGGQAQAVTGSIQPLSAQALAGSLSSQQVTGTTLQVPGQVAIQQISPGGQQQKQGQSVTSSSNRPRKTSSLSLFFRKVYHLAAVRLRDLCAKLDISDELRKKIWTCFEFSIIQCPELMMDRHLDQLLMCAIYVMAKVTKEDKSFQNIMRCYRTQPQARSQVYRSVLIKGKRKRRNSGSSDSRSHQNSPTELNKDRTSRDSSPVMRSSSTLPVPQPSSAPPTPTRLTGANSDMEEEERGDLIQFYNNIYIKQIKTFAMKYSQANMDAPPLSPYPFVRTGSPRRIQLSQNHPVYISPHKNETMLSPREKIFYYFSNSPSKRLREINSMIRTGETPTKKRGILLEDGSESPAKRICPENHSALLRRLQDVANDRGSH
For B4, in test [3], the binding result is listed as “binds”.

B5: p107, endogenous, HeLa extract (other, UniProt P28749 1-1068, looked up)
chain: MFEDKPHAEGAAVVAAAGEALQALCQELNLDEGSAAEALDDFTAIRGNYSLEGEVTHWLACSLYVACRKSIIPTVGKGIMEGNCVSLTRILRSAKLSLIQFFSKMKKWMDMSNLPQEFRERIERLERNFEVSTVIFKKYEPIFLDIFQNPYEEPPKLPRSRKQRRIPCSVKDLFNFCWTLFVYTKGNFRMIGDDLVNSYHLLLCCLDLIFANAIMCPNRQDLLNPSFKGLPSDFHTADFTASEEPPCIIAVLCELHDGLLVEAKGIKEHYFKPYISKLFDRKILKGECLLDLSSFTDNSKAVNKEYEEYVLTVGDFDERIFLGADAEEEIGTPRKFTRDTPLGKLTAQANVEYNLQQHFEKKRSFAPSTPLTGRRYLREKEAVITPVASATQSVSRLQSIVAGLKNAPSDQLINIFESCVRNPVENIMKILKGIGETFCQHYTQSTDEQPGSHIDFAVNRLKLAEILYYKILETVMVQETRRLHGMDMSVLLEQDIFHRSLMACCLEIVLFAYSSPRTFPWIIEVLNLQPFYFYKVIEVVIRSEEGLSRDMVKHLNSIEEQILESLAWSHDSALWEALQVSANKVPTCEEVIFPNNFETGNGGNVQGHLPLMPMSPLMHPRVKEVRTDSGSLRRDMQPLSPISVHERYSSPTAGSAKRRLFGEDPPKEMLMDKIITEGTKLKIAPSSSITAENVSILPGQTLLTMATAPVTGTTGHKVTIPLHGVANDAGEITLIPLSMNTNQESKVKSPVSLTAHSLIGASPKQTNLTKAQEVHSTGINRPKRTGSLALFYRKVYHLASVRLRDLCLKLDVSNELRRKIWTCFEFTLVHCPDLMKDRHLDQLLLCAFYIMAKVTKEERTFQEIMKSYRNQPQANSHVYRSVLLKSIPREVVAYNKNINDDFEMIDCDLEDATKTPDCSSGPVKEERGDLIKFYNTIYVGRVKSFALKYDLANQDHMMDAPPLSPFPHIKQQPGSPRRISQQHSIYISPHKNGSGLTPRSALLYKFNGSPSKSLKDINNMIRQGEQRTKKRVIAIDSDAESPAKRVCQENDDVLLKRLQDVVSERANH
On to B5, for which, in test [4], the binding result is “binds”.

The values are drawn from patent publication US7067646 (Dana-Farber, dated 2006).
